Key:
HeLa Kyoto [1] = assay: solubility in G1/S (NP-40 vs SDS abundance) (log2 ratio); higher = more soluble; conditions: cell cycle stage: G1/S
HeLa Kyoto [2] = assay: melting temperature (median over replicates), in situ; higher = more thermally stable
HeLa Kyoto [3] = assay: solubility change mitosis vs G1/S (difference of NP-40 vs SDS log2 ratios) (log2 ratio difference); higher = more soluble in mitosis
HeLa Kyoto [4] = assay: thermal stability score vs G1/S (z-score of summed log2 fold changes over temperatures); higher = more thermally stable than in G1/S
[5] = cell cycle stage: early G1 (4.5 h after nocodazole release)
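Wherever melting temperature (median over replicates), in situ is given: HeLa Kyoto cells synchronized by double thymidine or nocodazole block, proteins quantified by TMT10plex mass spectrometry, three independent biological replicates.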
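Wherever solubility change mitosis vs G1/S (difference of NP-40 vs SDS log2 ratios) is given: synchronized HeLa Kyoto cells (double thymidine block for G1/S, nocodazole release for mitosis), protein amounts in NP-40 versus SDS lysates quantified by mass spectrometry, three biological replicates.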
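Wherever solubility in G1/S (NP-40 vs SDS abundance) is given: HeLa Kyoto cells arrested at G1/S by double thymidine block, proteins quantified by TMT10plex mass spectrometry in mild NP-40 versus SDS extracts, three biological replicates.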
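Wherever thermal stability score vs G1/S (z-score of summed log2 fold changes over temperatures) is given: synchronized HeLa Kyoto cells, proteins quantified by TMT10plex mass spectrometry, three biological replicates, mitosis taken 0.5 h after nocodazole release, G1/S directly after double thymidine block.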

Sequence of CSNK2B (chain, as listed by the source): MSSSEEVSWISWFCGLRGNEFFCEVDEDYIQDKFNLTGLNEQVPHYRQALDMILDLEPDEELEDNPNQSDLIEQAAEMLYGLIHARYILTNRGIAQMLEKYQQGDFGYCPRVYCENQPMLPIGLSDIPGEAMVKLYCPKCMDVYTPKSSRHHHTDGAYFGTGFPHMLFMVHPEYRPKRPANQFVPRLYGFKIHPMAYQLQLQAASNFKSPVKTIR

Substance | solubility in G1/S (log2) (HeLa Kyoto [1]) | melting temperature (HeLa Kyoto [2]; cell cycle stage: G1/S) | melting temperature (HeLa Kyoto [2]; cell cycle stage: mitosis) | solubility change mitosis (log2) (HeLa Kyoto [3]) | thermal stability score (HeLa Kyoto [4]; [5]) | thermal stability score (HeLa Kyoto [4]; cell cycle stage: mitosis)
MDSEAFQSARDFLDMNFQSLAMKHMDLKQMELDTAAAKVDELTKQLESLWSDSPAPPGPQAGPPSRPPRYSSSSIPEPFGSRGSPRKAATDGADTPFGRSESAPTLHPYSPLSPKGRPSSPRTPLYLQPDAYGSLDRATSPRPRAFDGAGSSLGRAPSPRPGPGPLRQQGPPTPFDFLGRAGSPRGSPLAEGPQAFFPERGPSPRPPATAYDAPASAFGSSLLGSGGSAFAPPLRAQDDLTLRRRPPKAWNESDLDVAYEKKPSQTASYERLDVFARPASPSLQLLPWRESSLDGLGGTGKDNLTSATLPRNYKVSPLASDRRSDAGSYRRSLGSAGPSGTLPRSWQPVSRIPMPPSSPQPRGAPRQRPIPLSMIFKLQNAFWEHGASRAMLPGSPLFTRAPPPKLQPQPQPQPQPQSQPQPQLPPQPQTQPQTPTPAPQHPQQTWPPVNEGPPKPPTELEPEPEIEGLLTPVLEAGDVDEGPVARPLSPTRLQPALPPEAQSVPELEEVARVLAEIPRPLKRRGSMEQAPAVALPPTHKKQYQQIISRLFHRHGGPGPGGPEPELSPITEGSEARAGPPAPAPPAPIPPPAPSQSSPPEQPQSMEMRSVLRKAGSPRKARRARLNPLVLLLDAALTGELEVVQQAVKEMNDPSQPNEEGITALHNAICGANYSIVDFLITAGANVNSPDSHGWTPLHCAASCNDTVICMALVQHGAAIFATTLSDGATAFEKCDPYREGYADCATYLADVEQSMGLMNSGAVYALWDYSAEFGDELSFREGESVTVLRRDGPEETDWWWAALHGQEGYVPRNYFGLFPRVKPQRSKV [PPP1R13L] | 0.09 | 51.2 °C | 51.5 °C | 0.0483 | -0.761 | 0.0817
MGKAAAPSRGGGCGGRSRGLSSLFTVVPCLSCHTAAPGMSASTSGSGPEPKPQPQPVPEPERGPLSEQVSEAVSEAVPRSEPVSETTSEPEPGAGQPSELLQGSRPGSESSSGVGAGPFTKAASEPLSRAVGSATFLRPESGSLPALKPLPLLRPGQAKTPLGVPMSGTGTTSSAPLALLPLDSFEGWLLKWTNYLKGYQRRWFVLGNGLLSYYRNQGEMAHTCRGTINLSTAHIDTEDSCGILLTSGARSYHLKASSEVDRQQWITALELAKAKAVRVMNTHSDDSGDDDEATTPADKSELHHTLKNLSLKLDDLSTCNDLIAKHGAALQRSLTELDGLKIPSESGEKLKVVNERATLFRITSNAMINACRDFLELAEIHSRKWQRALQYEQEQRVHLEETIEQLAKQHNSLERAFHSAPGRPANPSKSFIEGSLLTPKGEDSEEDEDTEYFDAMEDSTSFITVITEAKEDSRKAEGSTGTSSVDWSSADNVLDGASLVPKGSSKVKRRVRIPNKPNYSLNLWSIMKNCIGRELSRIPMPVNFNEPLSMLQRLTEDLEYHHLLDKAVHCTSSVEQMCLVAAFSVSSYSTTVHRIAKPFNPMLGETFELDRLDDMGLRSLCEQVSHHPPSAAHYVFSKHGWSLWQEITISSKFRGKYISIMPLGAIHLEFQASGNHYVWRKSTSTVHNIIVGKLWIDQSGDIEIVNHKTNDRCQLKFLPYSYFSKEAARKVTGVVSDSQGKAHYVLSGSWDEQMECSKVMHSSPSSPSSDGKQKTVYQTLSAKLLWKKYPLPENAENMYYFSELALTLNEHEEGVAPTDSRLRPDQRLMEKGRWDEANTEKQRLEEKQRLSRRRRLEACGPGSSCSSEEEKEADAYTPLWFEKRLDPLTGEMACVYKGGYWEAKEKQDWHMCPNIF [OSBP2] | 0.0107 | 50.7 °C | 51 °C | -0.137 | -0.699 | -0.707
MRGFGPGLTARRLLPLRLPPRPPGPRLASGQAAGALERAMDELLRRAVPPTPAYELREKTPAPAEGQCADFVSFYGGLAETAQRAELLGRLARGFGVDHGQVAEQSAGVLHLRQQQREAAVLLQAEDRLRYALVPRYRGLFHHISKLDGGVRFLVQLRADLLEAQALKLVEGPDVREMNGVLKGMLSEWFSSGFLNLERVTWHSPCEVLQKISEAEAVHPVKNWMDMKRRVGPYRRCYFFSHCSTPGEPLVVLHVALTGDISSNIQAIVKEHPPSETEEKNKITAAIFYSISLTQQGLQGVELGTFLIKRVVKELQREFPHLGVFSSLSPIPGFTKWLLGLLNSQTKEHGRNELFTDSECKEISEITGGPINETLKLLLSSSEWVQSEKLVRALQTPLMRLCAWYLYGEKHRGYALNPVANFHLQNGAVLWRINWMADVSLRGITGSCGLMANYRYFLEETGPNSTSYLGSKIIKASEQVLSLVAQFQKNSKL [MLYCD] | 0.0216 | 52.7 °C | 54.3 °C | -0.194 | -0.712 | -1.19
CSNK2B | 0.227 | 50.8 °C | 51.1 °C | 0.0236 | 0.696 | 0.623
MAGSYPEGAPAILADKRQQFGSRFLSDPARVFHHNAWDNVEWSEEQAAAAERKVQENSIQRVCQEKQVDYEINAHKYWNDFYKIHENGFFKDRHWLFTEFPELAPSQNQNHLKDWFLENKSEVCECRNNEDGPGLIMEEQHKCSSKSLEHKTQTPPVEENVTQKISDLEICADEFPGSSATYRILEVGCGVGNTVFPILQTNNDPGLFVYCCDFSSTAIELVQTNSEYDPSRCFAFVHDLCDEEKSYPVPKGSLDIIILIFVLSAVVPDKMQKAINRLSRLLKPGGMVLLRDYGRYDMAQLRFKKGQCLSGNFYVRGDGTRVYFFTQEELDTLFTTAGLEKVQNLVDRRLQVNRGKQLTMYRVWIQCKYCKPLLSSTS [METTL2B] | 0.19 | 48.6 °C | 48.9 °C | -0.231 | -0.391 | 1.29
MAACTARRALAVGSRWWSRSLTGARWPRPLCAAAGAGAFSPASTTTTRRHLSSRNRPEGKVLETVGVFEVPKQNGKYETGQLFLHSIFGYRGVVLFPWQARLYDRDVASAAPEKAENPAGHGSKEVKGKTHTYYQVLIDARDCPHISQRSQTEAVTFLANHDDSRALYAIPGLDYVSHEDILPYTSTDQVPIQHELFERFLLYDQTKAPPFVARETLRAWQEKNHPWLELSDVHRETTENIRVTVIPFYMGMREAQNSHVYWWRYCIRLENLDSDVVQLRERHWRIFSLSGTLETVRGRGVVGREPVLSKEQPAFQYSSHVSLQASSGHMWGTFRFERPDGSHFDVRIPPFSLESNKDEKTPPSGLHW [POLDIP2] | 0.07 | 50.9 °C | 51.4 °C | -0.0327 | 0.146 | -0.814
MAQKKYLQAKLTQFLREDRIQLWKPPYTDENKKVGLALKDLAKQYSDRLECCENEVEKVIEEIRCKAIERGTGNDNYRTTGIATIEVFLPPRLKKDRKNLLETRLHITGRELRSKIAETFGLQENYIKIVINKKQLQLGKTLEEQGVAHNVKAMVLELKQSEEDARKNFQLEEEEQNEAKLKEKQIQRTKRGLEILAKRAAETVVDPEMTPYLDIANQTGRSIRIPPSERKALMLAMGYHEKGRAFLKRKEYGIALPCLLDADKYFCECCRELLDTVDNYAVLQLDIVWCYFRLEQLECLDDAEKKLNLAQKCFKNCYGENHQRLVHIKGNCGKEKVLFLRLYLLQGIRNYHSGNDVEAYEYLNKARQLFKELYIDPSKVDNLLQLGFTAQEARLGLRACDGNVDHAATHITNRREELAQIRKEEKEKKRRRLENIRFLKGMGYSTHAAQQVLHAASGNLDEALKILLSNPQMWWLNDSNPETDNRQESPSQENIDRLVYMGFDALVAEAALRVFRGNVQLAAQTLAHNGGSLPPELPLSPEDSLSPPATSPSDSAGTSSASTDEDMETEAVNEILEDIPEHEEDYLDSTLEDEEIIIAEYLSYVENRKSATKKN [NUB1] | -0.169 | 47.9 °C | 50.3 °C | -0.203 | 1.06 | 1.85
MAGELADKKDRDASPSKEERKRSRTPDRERDRDRDRKSSPSKDRKRHRSRDRRRGGSRSRSRSRSKSAERERRHKERERDKERDRNKKDRDRDKDGHRRDKDRKRSSLSPGRGKDFKSRKDRDSKKDEEDEHGDKKPKAQPLSLEELLAKKKAEEEAEAKPKFLSKAEREAEALKRRQQEVEERQRMLEEERKKRKQFQDLGRKMLEDPQERERRERRERMERETNGNEDEEGRQKIREEKDKSKELHAIKERYLGGIKKRRRTRHLNDRKFVFEWDASEDTSIDYNPLYKERHQVQLLGRGFIAGIDLKQQKREQSRFYGDLMEKRRTLEEKEQEEARLRKLRKKEAKQRWDDRHWSQKKLDEMTDRDWRIFREDYSITTKGGKIPNPIRSWKDSSLPPHILEVIDKCGYKEPTPIQRQAIPIGLQNRDIIGVAETGSGKTAAFLIPLLVWITTLPKIDRIEESDQGPYAIILAPTRELAQQIEEETIKFGKPLGIRTVAVIGGISREDQGFRLRMGCEIVIATPGRLIDVLENRYLVLSRCTYVVLDEADRMIDMGFEPDVQKILEHMPVSNQKPDTDEAEDPEKMLANFESGKHKYRQTVMFTATMPPAVERLARSYLRRPAVVYIGSAGKPHERVEQKVFLMSESEKRKKLLAILEQGFDPPIIIFVNQKKGCDVLAKSLEKMGYNACTLHGGKGQEQREFALSNLKAGAKDILVATDVAGRGIDIQDVSMVVNYDMAKNIEDYIHRIGRTGRAGKSGVAITFLTKEDSAVFYELKQAILESPVSSCPPELANHPDAQHKPGTILTKKRREETIFA [DDX23] | -1.02 | 48.8 °C | 50.4 °C | 0.24 | 1.14 | 3.64
MGLLSDPVRRRALARLVLRLNAPLCVLSYVAGIAWFLALVFPPLTQRTYMSENAMGSTMVEEQFAGGDRARAFARDFAAHRKKSGALPVAWLERTMRSVGLEVYTQSFSRKLPFPDETHERYMVSGTNVYGILRAPRAASTESLVLTVPCGSDSTNSQAVGLLLALAAHFRGQIYWAKDIVFLVTEHDLLGTEAWLEAYHDVNVTGMQSSPLQGRAGAIQAAVALELSSDVVTSLDVAVEGLNGQLPNLDLLNLFQTFCQKGGLLCTLQGKLQPEDWTSLDGPLQGLQTLLLMVLRQASGRPHGSHGLFLRYRVEALTLRGINSFRQYKYDLVAVGKALEGMFRKLNHLLERLHQSFFLYLLPGLSRFVSIGLYMPAVGFLLLVLGLKALELWMQLHEAGMGLEEPGGAPGPSVPLPPSQGVGLASLVAPLLISQAMGLALYVLPVLGQHVATQHFPVAEAEAVVLTLLAIYAAGLALPHNTHRVVSTQAPDRGWMALKLVALIYLALQLGCIALTNFSLGFLLATTMVPTAALAKPHGPRTLYAALLVLTSPAATLLGSLFLWRELQEAPLSLAEGWQLFLAALAQGVLEHHTYGALLFPLLSLGLYPCWLLFWNVLFWK [GPAA1] | -0.07 | 53.7 °C | 53.4 °C | -0.232 | 0.0135 | 0.0397
